# Measured values from patent US9944954B2, “Glycerol 3-phosphate dehydrogenase for butanol production” (BUTAMAX ADVANCED BIOFUELS LLC, priority 2013, dated 2018).
# Assays:
# [1] = tested on: NC(=O)C1=CN([C@@H]2O[C@H](COP(=O)(O)OP(=O)(O)OC[C@H]3O[C@@H](n4cnc5c(N)ncnc54)[C@H](O)[C@@H]3O)[C@@H](O)[C@H]2O)C=CC1; assay: cells, lysate or membranes named; settings: pH 6.8; 30.0 °C
# [2] = tested on: NC(=O)C1=CN([C@@H]2O[C@H](COP(=O)(O)OP(=O)(O)OC[C@H]3O[C@@H](n4cnc5c(N)ncnc54)[C@H](OP(=O)(O)O)[C@@H]3O)[C@@H](O)[C@H]2O)C=CC1; assay: cells, lysate or membranes named; settings: pH 6.8; 30.0 °C
# [3] = tested on: E. coli gpsA (glycerol-3-phosphate dehydrogenase); settings: cited from earlier work; for affinity for the cofactors NADH and NADPH: Edgar and Bell, JBC 255:3492-7 (1980)
# [4] = tested on: Saccharomyces cerevisiae GPD1; settings: read-out: NADH KM; Albertyn et al. 1992; cited from earlier work
# Leishmania mexicana GPD = settings: read-out: NADH KM; Marche et al, 2000; cited from earlier work
# Jaculus orientalis GPD = settings: read-out: NADH KM; Berrada et al, 2002; cited from earlier work
# Dunaliella viridis GPDH1 = settings: read-out: NADH KM; He et al, 2009; cited from earlier work
# Dunaliella viridis GPDH2 = settings: read-out: NADH KM; He et al, 2009; cited from earlier work
# [5] = tested on: Drosophila melanogaster GPDH1 (flight muscle); settings: read-out: NADH KM; Niesel et al, 1982; cited from earlier work
# [6] = tested on: Saccharomyces phosphatase GPP1; settings: Norbeck, JBC 271:13875-81 (1996); cited from earlier work
# [7] = tested on: Saccharomyces phosphatase GPP2; settings: Norbeck, JBC 271:13875-81 (1996); cited from earlier work
# [8] = substrate: NC(=O)C1=CN([C@@H]2O[C@H](COP(=O)(O)OP(=O)(O)OC[C@H]3O[C@@H](n4cnc5c(N)ncnc54)[C@H](O)[C@@H]3O)[C@@H](O)[C@H]2O)C=CC1; assay: purified protein, by the assay type; settings: pH 6.8, 30.0 °C
# [9] = substrate: NC(=O)C1=CN([C@@H]2O[C@H](COP(=O)(O)OP(=O)(O)OC[C@H]3O[C@@H](n4cnc5c(N)ncnc54)[C@H](OP(=O)(O)O)[C@@H]3O)[C@@H](O)[C@H]2O)C=CC1; assay: purified protein, by the assay type; settings: pH 6.8; 30.0 °C
# [10] = substrate: NC(=O)C1=CN([C@@H]2O[C@H](COP(=O)(O)OP(=O)(O)OC[C@H]3O[C@@H](n4cnc5c(N)ncnc54)[C@H](O)[C@@H]3O)[C@@H](O)[C@H]2O)C=CC1; assay: cells, lysate or membranes named; settings: pH 6.8; 30.0 °C; remark: listed apart in the source
# [11] = substrate: NC(=O)C1=CN([C@@H]2O[C@H](COP(=O)(O)OP(=O)(O)OC[C@H]3O[C@@H](n4cnc5c(N)ncnc54)[C@H](OP(=O)(O)O)[C@@H]3O)[C@@H](O)[C@H]2O)C=CC1; assay: cells, lysate or membranes named; settings: pH 6.8; 30.0 °C; remark: listed apart in the source
# [12] = substrate: NC(=O)C1=CN([C@@H]2O[C@H](COP(=O)(O)OP(=O)(O)OC[C@H]3O[C@@H](n4cnc5c(N)ncnc54)[C@H](O)[C@@H]3O)[C@@H](O)[C@H]2O)C=CC1; assay: cells, lysate or membranes named; type: biochemical, Saccharomyces cerevisiae; settings: E. coli expressed, 30.0 °C
# Protocol: Glycerol-3-phosphate production was measured by LC/MS.
# The data used in this section are provided in Table 11, and includes measurements of the metabolic products and the in vitro measurements of GPD as described above.
# [13] = other: GPD1 WT_y, crude cell extract, pH 6.8, 1 mM dihydroxyacetone phosphate
molecule,measurement,setting,value
Rickettsia prowazekii str. BuV67-CWPP GPD (gene SEQ ID NO: 16; SEQ ID NO: 192) (Rickettsia prowazekii str. Madrid E),Km,[1],664 µM
same,Km,[2],4 µM
"NC(=O)C1=CN([C@@H]2O[C@H](COP(=O)(O)OP(=O)(O)OC[C@H]3O[C@@H](n4cnc5c(N)ncnc54)[C@H](OP(=O)(O)O)[C@@H]3O)[C@@H](O)[C@H]2O)C=CC1 [NADPH, reduced nicotinamide adenine dinucleotide phosphate]",affinity for the cofactors NADH and NADPH,[3],substantially the same affinity
"NC(=O)C1=CN([C@@H]2O[C@H](COP(=O)(O)OP(=O)(O)OC[C@H]3O[C@@H](n4cnc5c(N)ncnc54)[C@H](O)[C@@H]3O)[C@@H](O)[C@H]2O)C=CC1 [NADH, reduced nicotinamide adenine dinucleotide]",Km,[4],23 µM
same,Km,Leishmania mexicana GPD,24 µM
same,Km,Jaculus orientalis GPD,32 µM
same,Km,Dunaliella viridis GPDH1,58.9 µM
same,Km,Dunaliella viridis GPDH2,59.2 µM
same,Km,[5],78 µM
same,affinity for the cofactors NADH and NADPH,[3],substantially the same affinity
O=P(O)(O)OC[C@H](O)CO [glycerol-3-phosphate],Michaelis constant,[6],3.1
same,Michaelis constant,[7],3.9
same,product inhibition by glycerol-3-phosphate,[3],product inhibited
Beggiatoa alba GPD (SEQ ID NO: 17; SEQ ID NO: 193) (Beggiatoa alba B18LD) (protein) MLSPSALLVLGAGSWGTALALALARRQYPIYLWGKDPAHVHTLQIQRCNQRFLPNAVFPDNLYAITDFVTLMPIVEDIIIVVPSHGFRETLKKIKPYITKNHRLCWATKGLEYQTGLLLHEVARAELGDNIPLAVLSGPSFAGEVAAALPTAVTIAAQDIENAHHVAQLFHQASFRAYTSNDMVGVQIGGAVKNVIAIAAGIADGLKMGANTRAALITRGLSEIVRLGIALGGQRETFMGLAGLGDLVLTCTDNQSRNRRFGYALAQGISLEAAQAQVGQVVEGIHAATITHQLAQQHGVEMPIVNHVNQVLTGQSTPLEAAQALLAREPKPEML,Km,[8],101 µM
same,Km,[9],6 µM
Archaeoglobus fulgidus DSM 4304 GPD (gene SEQ ID NO: 14) (Archaeoglobus fulgidus DSM 4304) (protein) MIVSILGAGAMGSALSVPLVDNGNEVRIWGTEFDTEILKSISAGREHPRLGVKLNGVEIFWPEQLEKCLENAEVVLLGVSTDGVLPVMSRILPYLKDQYIVLISKGLIDFDNSVLTVPEAVWRLKHDLRERTVAITGPAIAREVAKRMPTTVVFSSPSESSANKMKEIFETEYFGVEVTTDIIGTEITSALKNVYSIAIAWIRGYESRKNVEMSNAKGVIATRAINEMAELIEILGGDRETAFGLSGFGDLIATFRGGRNGMLGELLGKGLSIDEAMEELERRGVGVVEGYKTAEKAYRLSSKINADTKLLDSIYRVLYEGLKVEEVLFELATFK,Km,[10],5 µM
same,Km,[11],7 µM
"Saccharomyces cerevisiae GPD1 (glycerol-3-phosphate dehydrogenase), wild type, SEQ ID NO: 195 (Saccharomyces cerevisiae S288C) (protein, also native or codon-optimized GPD1 in yeast PNY2145-derived strains (T12); full length 391 aa) MSAAADRLNLTSGHLNAGRKRSSSSVSLKAAEKPFKVTVIGSGNWGTTIAKVVAENCKGYPEVFAPIVQMWVFEEEINGEKLTEIINTRHQNVKYLPGITLPDNLVANPDLIDSVKDVDIIVFNIPHQFLPRICSQLKGHVDSHVRAISCLKGFEVGAKGVQLLSSYITEELGIQCGALSGANIATEVAQEHWSETTVAYHIPKDFRGEGKDVDHKVLKALFHRPYFHVSVIEDVAGISICGALKNVVALGCGFVEGLGWGNNASAAIQRVGLGEIIRFGQMFFPESREETYYQESAGVADLITTCAGGRNVKVARLMATSGKDAWECEKELLNGQSAQGLITCKEVHEWLETCGSVEDFPLFEAVYQIVYNNYPMKNLPDMIEELDLHED",Km,[12]; [13],13 µM
same,Vmax,[12]; [13],9000 µM/min
same,Km,"[12]; other: one experiment, in parallel with Drosophila isoform C, pH 6.8",5 µM
"Drosophila melanogaster glycerol 3 phosphate dehydrogenase, isoform C (gi: 22945708) (Drosophila melanogaster) (protein) MADKVNVCIVGSGNWGSAIAKIVGANAAALPEFEERVTMFVYEELIDGKKLTEIINETHENVKYLKGHKLPPNVVAVPDLVEAAKNADILIFVVPHQFIPNFCKQLLGKIKPNAIAISLIKGFDKAEGGGIDLISHIITRHLKIPCAVLMGANLANEVAEGNFCETTIGCTDKKYGKVLRDLFQANHFRVVVVDDADAVEVCGALKNIVACGAGFVDGLKLGDNTKAAVIRLGLMEMIRFVDVFYPGSKLSTFFESCGVADLITTCYGGRNRRVSEAFVTSGKTIEELEKEMLNGQKLQGPPTAEEVNYMLKNKGLEDKFPLFTAIHKICTNQLKPNDLIDCIRNHPEHMDTSIMPSPKL",Km,"[8]; other: one experiment, in parallel with Saccharomyces GPD1, E. coli expressed",5 µM
Kangiella koreensis GPD (SEQ ID NO: 18; SEQ ID NO: 194) (Kangiella koreensis DSM 16069) (protein) MSAQLSFAVLGAGSYGTALAVLLARNGHSVQLWARNSQHVVEMQQAKQNTKYLPDVAFPDNLSVTDQIDVALKHHPIILVAVPSHAFRDTLYLIKPLVNQDSKLVWASKGLDPDSGDLLGNVLKNILGDNMPHAILSGPTFAKEMAIGMPTAITLAANNDDFAEQLALALHNERFRVYTSDDIVGVQVGGAVKNVVAIGAGIADGLGYGANARTALITRGLAEMTRLGVAAGGKQETFNGMAGMGDLVLTCTDNQSRNRRFGLALGKGANRDEAEHAIGQVVEGVRNAKEVKMLAERLGVEMPISDAIYRIIYEGVDARQAAHELLTRDLKSEG,Km,[8],2018 µM
same,Km,[9],1 µM
